Test results as given in patent US10927188B2, “Method for producing short-chain peptide-immobilized carrier, and short-chain peptide-immobilized carrier” (FUJIFILM Corporation, priority 2015, dated 2021).
Where no end group is shown, it is not given here.

Assay: Percentage content of secondary structure by CD (circular dichroism) spectrum
Assay type: physicochemical
Details: for Percentage content of secondary structure In HEPES: free peptide in HEPES buffer solution (10 mM HEPES-HCl, 150 mM NaCl, pH 7.4, 25° C.); for Percentage content of secondary structure In MeOH: free peptide in methanol (purity 99.5% by mass)

Substance | Percentage content of secondary structure In HEPES [%] | Percentage content of secondary structure In MeOH [%]
KKRKEQQKKFYKKLHK [Short-chain peptide 8] | 16 | 88
KKRREQQNAFYEILHKRRKK [Short-chain peptide 6] | 35 | 100
KKRKEQQNAFYEILHKRRKK [Short-chain peptide 7] | 35 | 100
KKKKEQQNAFYEILHKKKK (SIMILAR (5)..(11) SEQ ID No.1 EQQNAFY; SIMILAR (5)..(15) SEQ ID No.2 EQQNAFYEILH) [Short-chain peptide 4] | 32 | 100
KKKKKEQQNAFYEILH (SIMILAR (6)..(12) SEQ ID No.1 EQQNAFY; SIMILAR (6)..(16) SEQ ID No.2 EQQNAFYEILH) [Short-chain peptide 2] | 30 | 84
Ac-KAAKEQQKAFYKILH [Short-chain peptide 5] | 36 | 92
KKKEQQNAFYEILHKKK (SIMILAR (4)..(14) SEQ ID No.2 EQQNAFYEILH; SIMILAR (4)..(10) SEQ ID No.1 EQQNAFY) [Short-chain peptide 3] | 33 | 100
